Measured values as given in paper PMC9242648, “Hypertrophic cardiomyopathy mutations in the pliant and light chain-binding regions of the lever arm of human β-cardiac myosin have divergent effects on myosin function” (eLife, 2022).
Each block holds one binder with its values, some of them ahead of it.

Assays:
[1] = target: T1, human β-cardiac myosin 2-hep heavy chain, wild type (human | ); assay: light chain loading gel assay (Coomassie SDS-PAGE densitometry of the co-purified complex); human RLC purified from E. coli added to myosin held on anti-FLAG resin after depletion of native mouse RLC (>2.5 hr, 4°C); buffer exchanged 5x in a 50 or 100 kDa filter to remove unbound light chains; dilution series 10-1 pmol per lane, 700 nm scan, slope of light chain over slope of heavy chain; settings: both partners purified
T1 chain: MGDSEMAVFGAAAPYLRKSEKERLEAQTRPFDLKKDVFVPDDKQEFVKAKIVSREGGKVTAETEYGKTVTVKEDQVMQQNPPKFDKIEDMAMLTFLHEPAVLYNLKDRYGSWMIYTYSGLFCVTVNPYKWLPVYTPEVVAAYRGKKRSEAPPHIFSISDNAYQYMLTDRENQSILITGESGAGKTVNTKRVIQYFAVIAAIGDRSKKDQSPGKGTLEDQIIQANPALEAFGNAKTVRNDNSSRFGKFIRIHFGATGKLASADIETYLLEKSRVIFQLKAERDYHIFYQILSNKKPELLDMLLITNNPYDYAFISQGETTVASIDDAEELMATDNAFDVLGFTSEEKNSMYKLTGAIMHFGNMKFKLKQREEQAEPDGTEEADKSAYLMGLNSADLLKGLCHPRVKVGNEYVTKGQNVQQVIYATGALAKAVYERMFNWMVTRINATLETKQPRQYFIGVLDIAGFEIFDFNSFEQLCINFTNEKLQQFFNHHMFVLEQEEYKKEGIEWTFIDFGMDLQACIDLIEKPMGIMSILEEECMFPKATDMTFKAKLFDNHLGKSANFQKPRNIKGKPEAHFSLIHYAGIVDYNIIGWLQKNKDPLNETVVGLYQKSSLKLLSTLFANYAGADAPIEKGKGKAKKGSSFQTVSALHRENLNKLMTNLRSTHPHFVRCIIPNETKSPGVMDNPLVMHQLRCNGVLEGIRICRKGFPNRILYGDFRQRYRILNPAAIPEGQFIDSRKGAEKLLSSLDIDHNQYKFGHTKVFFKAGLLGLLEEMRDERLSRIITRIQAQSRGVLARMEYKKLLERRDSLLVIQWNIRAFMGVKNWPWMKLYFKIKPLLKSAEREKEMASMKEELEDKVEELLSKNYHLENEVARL

[2] = target: T1, human β-cardiac myosin 2-hep heavy …; assay: light chain loading gel assay (Coomassie SDS-PAGE densitometry of the co-purified complex); ELC co-expressed with the 2-hep heavy chain in C2C12 cells and purified through the FLAG tag of the ELC; buffer exchanged 5x in a 50 or 100 kDa filter to remove unbound light chains; dilution series 10-1 pmol per lane, 700 nm scan, slope of light chain over slope of heavy chain; settings: partners not purified

RLC/HC ratio (Coomassie band density, light chain over heavy chain) [1]: 0.11
B1: human regulatory light chain (MYL2) (natural protein, UniProt P10916 1-166, looked up)
chain: MAPKKAKKRAGGANSNVFSMFEQTQIQEFKEAFTIMDQNRDGFIDKNDLRDTFAALGRVNVKNEEIDEMIKEAPGPINFTVFLTMFGEKLKGADPEETILNAFKVFDPEGKGVLKADYVREMLTTQAERFSKEEVDQMFAAFPPDVTGNLDYKNLVHIITHGEEKD
notes: human regulatory light chain, MYL2; N-terminal His-TEV tag added; also called RLC; source: E. coli, purified (as in Nag et al., 2017)

ELC/HC ratio (Coomassie band density, light chain over heavy chain) [2]: 0.19
B2: human essential light chain (MYL3) (natural protein)
chain: not shown
notes: human essential light chain, MYL3; N-terminal FLAG tag followed by a TEV protease site; TEV protease cleaved the ELC-myosin complex off the anti-FLAG resin; also called ELC; not shown: FLAG, N-terminal, cleaved
